Test [1] addresses biotinylated labeled human GPC3 protein (produced in-house) (human, UniProt P51654 25-559, limits assumed, biotinylated (Dojindo, Cat. No. LK03); sites not stated). Kind of test: ELISA, biotinylated human GPC3 protein.
The target in test [2] is T1, murine GPC3-his protein (Sino Biological, Cat. No. 50989-M08B) (murine, UniProt Q8CFZ4 25-558).
T1 construct: Bought protein; also called murine GPC3 protein
In words: ELISA, coated murine GPC3-His.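 Further: antigen coated on plates at 1 µg/mL, test antibody bound for 2 h at 37 °C, detected with HRP-conjugated secondary antibody and TMB substrate after acid stop.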 Background: ELISA stands for enzyme-linked immunosorbent assay.

The values below come from patent publication US20260116991A1 (HAINAN SIMCERE ZAIMING PHARMACEUTICAL, published 2026).

T1 sequence (Q8CFZ4 25-558 limits assumed): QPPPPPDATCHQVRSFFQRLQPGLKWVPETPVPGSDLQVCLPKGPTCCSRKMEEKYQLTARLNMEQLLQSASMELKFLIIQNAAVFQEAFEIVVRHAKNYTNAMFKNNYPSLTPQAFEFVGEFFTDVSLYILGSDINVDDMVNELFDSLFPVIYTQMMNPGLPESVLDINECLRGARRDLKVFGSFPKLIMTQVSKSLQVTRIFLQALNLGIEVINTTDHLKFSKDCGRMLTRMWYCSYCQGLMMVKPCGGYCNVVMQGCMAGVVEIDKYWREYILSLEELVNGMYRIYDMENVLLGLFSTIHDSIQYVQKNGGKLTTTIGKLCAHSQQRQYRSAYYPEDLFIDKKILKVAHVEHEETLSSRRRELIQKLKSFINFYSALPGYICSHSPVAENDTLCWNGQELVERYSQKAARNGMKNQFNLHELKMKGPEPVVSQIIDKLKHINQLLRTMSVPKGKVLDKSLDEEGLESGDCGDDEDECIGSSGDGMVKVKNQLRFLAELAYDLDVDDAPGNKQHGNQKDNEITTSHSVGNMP

B1: hAb006LH2L1a (antibody, human IgG1, V domains shown)
VH: EVQLVQSGAEVKKPGSSVKVSCKASGYTFTDYEIHWVRQAPGQGLEWMGAIDPKTGNTAYNQKFMGRVTITADKSTSTAYMELSSLRSEDTAVYYCTRYFSFAYWGQGTLVTVSS
VL: DIVMTQTPLSLPVTPGEPASISCRSSQTFVHSDGNTYLQWYLQKPGQSPQLLIYKVSNRFSGVPDRFSGSGSGTDFTLKISRVEAEDVGVYYCFQGSHVPYTFGQGTKLEIK
notes: Humanized F3.38.7; VH H2 + VL L1a; expressed as human IgG1
For B1, in test [1], the “OD450 at 0.0008 nM” value turned out to be 0.073 OD450, the “OD450 at 0.004 nM” value was determined as 0.072 OD450, the “OD450 at 0.02 nM” value came out at 0.076 OD450 and the “OD450 at 0.11 nM” value was 0.139 OD450. In addition, in test [1], the “OD450 at 0.53 nM” value was 0.584 OD450, the “OD450 at 2.67 nM” value amounted to 1.37 OD450, the “OD450 at 13.33 nM” value is 1.74 OD450 and the “OD450 at 66.66 nM” value worked out at 1.92 OD450.

B2: hAb007LH1L1a (antibody, human IgG1, V domains shown)
VH: EVQLVQSGAEVKKPGSSVKVSCKASGYTFSDYEMHWVRQAPGQGLEWMGTIDPETGNTAYNQKFKGRVTITADKSTSTAYMELSSLRSEDTAVYYCTRPYSLTYWGQGTLVTVSS
VL: DIVMTQTPLSLPVTPGEPASISCRSSQSFVHSDGDTYLQWYLQKPGQSPQLLIYKVSNRFSGVPDRFSGSGSGTDFTLKISRVEAEDVGVYYCFQGSHVPYTFGQGTKLEIK
notes: Humanized F3.81.19; VH H1 + VL L1a; expressed as human IgG1
Take B2: in test [1], the “OD450 at 0.0008 nM” value amounted to 0.087 OD450, the “OD450 at 0.004 nM” value was 0.112 OD450, the “OD450 at 0.02 nM” value is 0.218 OD450 and the “OD450 at 0.11 nM” value is 0.634 OD450. Besides, in test [1], the “OD450 at 0.53 nM” value amounted to 1.57 OD450, the “OD450 at 2.67 nM” value came out at 2.1 OD450, the “OD450 at 13.33 nM” value came out at 2.2 OD450 and the “OD450 at 66.66 nM” value worked out at 2.22 OD450.

B3: hAb006LH3L1a (antibody, human IgG1, V domains shown)
VH: EVQLVQSGAEVKKPGSSVKVSCKASGYTFTDYEIHWVRQAPGQGLEWMGAIDPKTGNTAYNQKFMGRVTLTADKSTSTAYMELSSLRSEDTAVYYCTRYFSFAYWGQGTLVTVSS
VL: DIVMTQTPLSLPVTPGEPASISCRSSQTFVHSDGNTYLQWYLQKPGQSPQLLIYKVSNRFSGVPDRFSGSGSGTDFTLKISRVEAEDVGVYYCFQGSHVPYTFGQGTKLEIK
notes: Humanized F3.38.7; VH H3 + VL L1a; expressed as human IgG1
Take B3: in test [1], the “OD450 at 0.0008 nM” value came out at 0.076 OD450, the “OD450 at 0.004 nM” value worked out at 0.072 OD450, the “OD450 at 0.02 nM” value was 0.087 OD450 and the “OD450 at 0.11 nM” value is 0.207 OD450. Also, in test [1], the “OD450 at 0.53 nM” value was determined as 0.909 OD450, the “OD450 at 2.67 nM” value came to 1.48 OD450, the “OD450 at 13.33 nM” value stood at 1.83 OD450 and the “OD450 at 66.66 nM” value is 2.07 OD450.

B4: hAb007LH2L1a (antibody, human IgG1, V domains shown)
VH: EVQLVQSGAEVKKPGSSVKVSCKASGYTFTDYEMHWVRQAPGQGLEWMGTIDPETGNTAYNQKFKGRVTITADKSTSTAYMELSSLRSEDTAVYYCTRPYSLTYWGQGTLVTVSS
VL: DIVMTQTPLSLPVTPGEPASISCRSSQSFVHSDGDTYLQWYLQKPGQSPQLLIYKVSNRFSGVPDRFSGSGSGTDFTLKISRVEAEDVGVYYCFQGSHVPYTFGQGTKLEIK
notes: Humanized F3.81.19; VH H2 + VL L1a; expressed as human IgG1
As to B4, in test [1], the “OD450 at 0.0008 nM” value amounted to 0.092 OD450, the “OD450 at 0.004 nM” value was 0.099 OD450, the “OD450 at 0.02 nM” value was determined as 0.173 OD450 and the “OD450 at 0.11 nM” value turned out to be 0.491 OD450. Further, in test [1], the “OD450 at 0.53 nM” value worked out at 1.29 OD450, the “OD450 at 2.67 nM” value was found to be 1.95 OD450, the “OD450 at 13.33 nM” value came out at 2.12 OD450 and the “OD450 at 66.66 nM” value was 2.09 OD450.

B5: hAb007LH3L1a (antibody, human IgG1, V domains shown)
VH: EVQLVQSGAEVKKPGSSVKVSCKASGYTFTDYEMHWVRQAPGQGLEWMGTIDPETGNTAYNQKFKGRVTLTADKSTSTAYMELSSLRSEDTAVYYCTRPYSLTYWGQGTLVTVSS
VL: DIVMTQTPLSLPVTPGEPASISCRSSQSFVHSDGDTYLQWYLQKPGQSPQLLIYKVSNRFSGVPDRFSGSGSGTDFTLKISRVEAEDVGVYYCFQGSHVPYTFGQGTKLEIK
notes: Humanized F3.81.19; VH H3 + VL L1a; expressed as human IgG1
For the molecule B5, in test [1], the “OD450 at 0.0008 nM” value was 0.083 OD450, the “OD450 at 0.004 nM” value turned out to be 0.088 OD450, the “OD450 at 0.02 nM” value was determined as 0.14 OD450 and the “OD450 at 0.11 nM” value was determined as 0.353 OD450. In test [1], the “OD450 at 0.53 nM” value turned out to be 1.04 OD450, the “OD450 at 2.67 nM” value worked out at 1.78 OD450, the “OD450 at 13.33 nM” value stood at 2.04 OD450 and the “OD450 at 66.66 nM” value is 2.03 OD450.

B6: F1.2.14 human-murine chimeric antibody (antibody, human IgG1, kappa, V domains shown)
VH: RVQLQQSGAELVKPGASVRMSCKASGYTFTAYSIEWMKQNLGKSLEWIGNFRPYNDDTKYNENFKGRATLTVEKSSATVYLELSRLTSDDSAVYYCARSGPTDYFDYWGQGTTLIVSS
VL: DIQMTQSPASLSASVGETVTITCRASDNIYSYLAWYQQKQGQSPQLLVYNAKTLAEGVPSRFSGSGSVTQFSLKIISLQPEDFGTYYCQHHFGTPRTFGGGTKLEIKR
With B6, in test [2], the “OD450 at 0.0001 nM antibody” value was determined as 0.05 OD450 nm, the “OD450 at 0.001 nM antibody” value was 0.05 OD450 nm, the “OD450 at 0.01 nM antibody” value stood at 0.06 OD450 nm and the “OD450 at 0.1 nM antibody” value stood at 0.14 OD450 nm. In test [2], the “OD450 at 1 nM antibody” value was 0.46 OD450 nm, the “OD450 at 10 nM antibody” value turned out to be 1.2 OD450 nm and the “OD450 at 100 nM antibody” value stood at 1.24 OD450 nm.

B7: F1.42.8 human-murine chimeric antibody (antibody, human IgG1, kappa, V domains shown)
VH: HVQLQQPGAELVKPGASVKLSCKASGYTFTSYWMHWVRQRPGQGLEWIEMIHPNSGSTNYNEKFKSKATLTVDKSSSTAYMQLSSLTSEDSAVYYCARGNYNSSLYAMDYWGQGTSVTVSS
VL: DIQMTQTTSSLSASLGDRVTISCSASQGISNYLNWYQQKPDGTVKLLIYYASNLHSGVPSRFSGSGSGTAYSLTISNLEPEDIATYYCQQYSILPYTFGGGTKLEIKR
On to B7, for which, in test [2], the “OD450 at 0.0001 nM antibody” value was 0.05 OD450 nm, the “OD450 at 0.001 nM antibody” value was 0.09 OD450 nm, the “OD450 at 0.01 nM antibody” value came to 0.37 OD450 nm and the “OD450 at 0.1 nM antibody” value turned out to be 1.7 OD450 nm. For the same molecule, in test [2], the “OD450 at 1 nM antibody” value came to 2.51 OD450 nm, the “OD450 at 10 nM antibody” value was 2.6 OD450 nm and the “OD450 at 100 nM antibody” value came out at 2.75 OD450 nm.
